Reference: patent US20030125257A1, “Assay for identifying beta secretase inhibitors” (priority 2001, published 2003)
Square brackets hold non-standard residues; d marks the D form. Ends that are not written are not given here. Sta = CC(C)C[C@H](N)[C@@H](O)CC(=O)O

Biological target: T1, purified BACE (Homo sapiens, UniProt P56817)
T1 construct: Pooled fractions containing full-length BACE were passed over a 5 ml HiTrap Q column; 6xHis (C); made in house; host or cells: Sf9 insect cells (recombinant baculovirus, pFASTBAC1)
Assay: Competitive radioligand binding assay (RLBA)
Details: binding to purified BACE as in example 6, FIG. 4
Description: 96 well microplates (Optiplate Packard) are coated with purified BACE protein using a concentration of 1 μg/ml in 30 mM sodium citrate buffer adjusted to pH 5.5. The coating is achieved by incubation of 100 μl/well for 1-3 days at 4° C. The plate is then washed with 2×300 μl/well of 10 mM citrate pH 4.1. To each well 100 μl binding buffer (30 mM citrate, 100 mM NaCl, 0.1% BSA, pH 4.1) is dispensed. The test compound (peptide H-4848 in FIGS. 4A and B) is added in 5 μl from a DMSO stock solution or appropriate dilutions. To this the tracer (tritiated Compound A) is added in 10 μl/well from a 10 μCi/ml stock solution in binding buffer. After incubation for 1.5-2 hours in a humid chamber at ambient temperature the plate is washed with 2×300 μl/well water and flipped on a dry towel. Following the addition of 50 μl/well MicroScint20 (Packard) the plate is sealed and vibrated for 5 seconds. The bound radioactivity is counted on a Topcount (Packard). Total binding is typically between 2000 and 10000 cpm/well depending mainly on the purity and concentration of the BACE protein. Non-specific binding as assessed by competition with >1 μM peptide H-4848 (Bachem #H-4848) is typically between 30 and 300 cpm/well. The IC-50 values are calculated by Microsoft Excel FIT.

T1 sequence (P56817 46-501): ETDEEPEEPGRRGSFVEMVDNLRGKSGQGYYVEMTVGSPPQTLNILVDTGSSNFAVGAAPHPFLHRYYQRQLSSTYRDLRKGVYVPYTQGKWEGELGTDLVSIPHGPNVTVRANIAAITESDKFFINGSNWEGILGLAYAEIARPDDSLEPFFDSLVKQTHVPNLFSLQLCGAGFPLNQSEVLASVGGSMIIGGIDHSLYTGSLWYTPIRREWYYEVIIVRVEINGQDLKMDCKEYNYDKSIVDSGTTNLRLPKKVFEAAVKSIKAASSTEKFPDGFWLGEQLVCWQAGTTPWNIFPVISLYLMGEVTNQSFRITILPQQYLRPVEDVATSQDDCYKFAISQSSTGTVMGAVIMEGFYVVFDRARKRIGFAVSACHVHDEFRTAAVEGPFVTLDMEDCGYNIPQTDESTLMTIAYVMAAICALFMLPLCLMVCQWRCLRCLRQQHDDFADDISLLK

## tritiated compound A: Compound A with iodine exchanged for 3H by reduction on palladium; tracer of the binding assay (EVN[Sta]VAE[Tyr(3H2)]-NH2)
  equilibrium binding isotherm (Scatchart analysis): single binding site isotherm
